In the Immune Epitope Database (IEDB):

Experiments:
HLA-A*02:01 [1] = assay: IEDB peptide-MHC binding, purified MHC/competitive/fluorescence; filed as Kd, often an IC50 or EC50 that approximates it; ≥ and ≤ were set here for values at or beyond the usual limits of such assays; details: source organism: Human immunodeficiency virus 1
HLA-A*02:03 [2] = assay: as above; details: source organism: Human immunodeficiency virus 1
HLA-A*02:06 [3] = assay: as above; details: source organism: Human immunodeficiency virus 1
HLA-A*26:01 [4] = assay: as above; details: source organism: Human immunodeficiency virus 1
HLA-A*68:02 = assay: as above; details: source organism: Human immunodeficiency virus 1
HLA-B*08:02 = assay: as above; details: source organism: Human immunodeficiency virus 1
HLA-B*18:01 [5] = assay: as above; details: source organism: Human immunodeficiency virus 1
HLA-B*39:01 [6] = assay: as above; details: source organism: Human immunodeficiency virus 1
HLA-A*02:01 [7] = assay: IEDB peptide-MHC binding, purified MHC/direct/fluorescence; filed as Kd, often an IC50 or EC50 that approximates it; ≥ and ≤ were set here for values at or beyond the usual limits of such assays
HLA-A*02:03 [8] = assay: as above; details: source organism: Listeria monocytogenes serotype 4b str. H7858
HLA-A*02:06 [9] = assay: as above; details: source organism: Listeria monocytogenes serotype 4b str. H7858
HLA-A*02:12 = assay: as above; details: source organism: Listeria monocytogenes serotype 4b str. H7858
HLA-A*02:19 = assay: as above; details: source organism: Listeria monocytogenes serotype 4b str. H7858
HLA-A*03:01 = assay: as above
HLA-A*23:01 = assay: as above; details: source organism: Listeria monocytogenes serotype 4b str. H7858
HLA-A*26:01 [10] = assay: as above; details: source organism: Listeria monocytogenes serotype 4b str. H7858
HLA-A*29:02 = assay: as above; details: source organism: Listeria monocytogenes serotype 4b str. H7858
HLA-A*69:01 = assay: as above
HLA-B*18:01 [11] = assay: as above; details: source organism: Listeria monocytogenes serotype 4b str. H7858
HLA-B*27:03 = assay: as above; details: source organism: Listeria monocytogenes serotype 4b str. H7858
HLA-B*39:01 [12] = assay: as above; details: source organism: Listeria monocytogenes serotype 4b str. H7858
HLA-B*51:01 = assay: as above; details: source organism: Listeria monocytogenes serotype 4b str. H7858
HLA-B*57:01 = assay: as above; details: source organism: Listeria monocytogenes serotype 4b str. H7858
HLA-A*01:01 [13] = assay: IEDB peptide-MHC binding, purified MHC/competitive/fluorescence; filed as Kd, often an IC50 or EC50 that approximates it; ≥ and ≤ were set here for values at or beyond the usual limits of such assays; details: source organism: Listeria monocytogenes J0161
HLA-A*11:01 [14] = assay: as above; details: source organism: Listeria monocytogenes J0161
HLA-A*24:03 = assay: as above; details: source organism: Listeria monocytogenes J0161
HLA-A*30:01 = assay: as above; details: source organism: Listeria monocytogenes J0161
HLA-A*66:01 = assay: as above; details: source organism: Listeria monocytogenes J0161
HLA-B*07:02 [15] = assay: as above; details: source organism: Listeria monocytogenes J0161
HLA-B*08:01 [16] = assay: as above; details: source organism: Listeria monocytogenes J0161
HLA-B*14:02 = assay: as above; details: source organism: Listeria monocytogenes J0161
HLA-B*27:05 [17] = assay: as above; details: source organism: Listeria monocytogenes J0161
HLA-B*40:01 [18] = assay: as above; details: source organism: Listeria monocytogenes J0161
HLA-B*44:02 [19] = assay: as above; details: source organism: Listeria monocytogenes J0161
HLA-B*53:01 = assay: as above; details: source organism: Listeria monocytogenes J0161
HLA-B*58:01 [20] = assay: as above; details: source organism: Listeria monocytogenes J0161
HLA-A*02:11 = assay: IEDB peptide-MHC binding, purified MHC/direct/fluorescence; filed as Kd, often an IC50 or EC50 that approximates it; ≥ and ≤ were set here for values at or beyond the usual limits of such assays; details: source organism: Vibrio vulnificus CMCP6
HLA-A*02:16 = assay: as above
HLA-A*02:50 = assay: IEDB peptide-MHC binding, purified MHC/competitive/fluorescence; filed as Kd, often an IC50 or EC50 that approximates it; ≥ and ≤ were set here for values at or beyond the usual limits of such assays
HLA-A*01:01 [21] = assay: IEDB peptide-MHC binding, purified MHC/direct/fluorescence; filed as Kd, often an IC50 or EC50 that approximates it; ≥ and ≤ were set here for values at or beyond the usual limits of such assays; details: source organism: Salmonella enterica
HLA-A*11:01 [22] = assay: as above; details: source organism: Salmonella enterica
HLA-B*07:02 [23] = assay: as above; details: source organism: Salmonella enterica
HLA-B*08:01 [24] = assay: as above; details: source organism: Salmonella enterica subsp. enterica serovar Typhimurium str. LT2
HLA-B*15:01 = assay: as above; details: source organism: Salmonella enterica
HLA-B*27:05 [25] = assay: as above; details: source organism: Salmonella enterica
HLA-B*40:01 [26] = assay: as above; details: source organism: Salmonella enterica
HLA-B*44:02 [27] = assay: as above; details: source organism: Salmonella enterica
HLA-B*58:01 [28] = assay: as above; details: source organism: Salmonella enterica
HLA-C*14:02 = assay: as above; details: source organism: Salmonella enterica subsp. enterica serovar Typhi str. CT18
[29] = source organism: Listeria monocytogenes serotype 4b str. H7858
[30] = source organism: Vibrio vulnificus
[31] = source organism: Salmonella enterica

**Q.** Which Kd (HLA-A*02:01 [1]) does the source give for IEVKDTKEAL here?
**A.** 681 nM

**Q.** And the Kd (HLA-A*02:03 [2])?
**A.** ≥ 20 µM

**Q.** What about the Kd (HLA-A*02:06 [3]) of the same sequence?
**A.** 574 nM

**Q.** And the Kd (HLA-A*26:01 [4])?
**A.** ≥ 20 µM

**Q.** What about the Kd (HLA-A*68:02) of the same sequence?
**A.** 766 nM

**Q.** And the Kd (HLA-B*08:02)?
**A.** ≥ 20 µM

**Q.** And the Kd (HLA-B*18:01 [5])?
**A.** 314 nM

**Q.** What about the Kd (HLA-B*39:01 [6]) of the same sequence?
**A.** ≥ 20 µM

**Q.** How did the Kd (HLA-A*02:01 [7]; [29]) turn out when AALEGLSGF was run?
**A.** 1900 nM

**Q.** And the Kd (HLA-A*02:03 [8])?
**A.** ≥ 20 µM

**Q.** What about the Kd (HLA-A*02:06 [9]) of the same sequence?
**A.** 1920 nM

**Q.** What about the Kd (HLA-A*02:12) of the same sequence?
**A.** ≥ 20 µM

**Q.** What about the Kd (HLA-A*02:19) of the same sequence?
**A.** ≥ 20 µM

**Q.** What about the Kd (HLA-A*03:01; [29]) of the same sequence?
**A.** ≥ 20 µM

**Q.** What about the Kd (HLA-A*23:01) of the same sequence?
**A.** 622 nM

**Q.** What about the Kd (HLA-A*26:01 [10]) of the same sequence?
**A.** ≥ 20 µM

**Q.** And the Kd (HLA-A*29:02)?
**A.** 542 nM

**Q.** What about the Kd (HLA-A*69:01; [29]) of the same sequence?
**A.** ≥ 20000 nM

**Q.** And the Kd (HLA-B*18:01 [11])?
**A.** ≥ 20 µM

**Q.** What about the Kd (HLA-B*27:03) of the same sequence?
**A.** ≥ 20 µM

**Q.** And the Kd (HLA-B*39:01 [12])?
**A.** ≥ 20 µM

**Q.** And the Kd (HLA-B*51:01)?
**A.** ≥ 20 µM

**Q.** And the Kd (HLA-B*57:01)?
**A.** ≥ 20 µM

**Q.** And the Kd (HLA-A*01:01 [13])?
**A.** ≥ 5 µM

**Q.** And the Kd (HLA-A*11:01 [14])?
**A.** ≥ 5 µM

**Q.** What about the Kd (HLA-A*24:03) of the same sequence?
**A.** 771 nM

**Q.** What about the Kd (HLA-A*30:01) of the same sequence?
**A.** ≥ 5 µM

**Q.** And the Kd (HLA-A*66:01)?
**A.** ≥ 5 µM

**Q.** And the Kd (HLA-B*07:02 [15])?
**A.** ≥ 5 µM

**Q.** What about the Kd (HLA-B*08:01 [16]) of the same sequence?
**A.** ≥ 5 µM

**Q.** And the Kd (HLA-B*14:02)?
**A.** ≥ 5 µM

**Q.** And the Kd (HLA-B*27:05 [17])?
**A.** ≥ 5 µM

**Q.** And the Kd (HLA-B*40:01 [18])?
**A.** ≥ 5 µM

**Q.** What about the Kd (HLA-B*44:02 [19]) of the same sequence?
**A.** ≥ 5 µM

**Q.** And the Kd (HLA-B*53:01)?
**A.** ≥ 5 µM

**Q.** What about the Kd (HLA-B*58:01 [20]) of the same sequence?
**A.** ≥ 5 µM

**Q.** How did the Kd (HLA-A*02:01 [7]; [30]) turn out when QLAFTYCQV was run?
**A.** 567 nM

**Q.** What about the Kd (HLA-A*02:11) of the same sequence?
**A.** 2 nM

**Q.** What about the Kd (HLA-A*02:16; source organism: Vibrio vulnificus CMCP6) of the same sequence?
**A.** 21 nM

**Q.** What about the Kd (HLA-A*69:01; [30]) of the same sequence?
**A.** 153 nM

**Q.** What about the Kd (HLA-A*02:50; source organism: Vibrio vulnificus YJ016) of the same sequence?
**A.** ≤ 0.1 nM

**Q.** What does the source list for AMMWRIAQL?
**A.** Kd (HLA-A*01:01 [21]): ≥ 20 µM; Kd (HLA-A*02:01 [7]; [31]): 26.2 nM; Kd (HLA-A*02:16; source organism: Salmonella enterica subsp. enterica serovar Typhimurium str. LT2): ≤ 1 nM; Kd (HLA-A*03:01; [31]): ≥ 20 µM; Kd (HLA-A*11:01 [22]): ≥ 20 µM; Kd (HLA-A*69:01; [31]): 2000 nM; Kd (HLA-B*07:02 [23]): ≥ 20 µM; Kd (HLA-B*08:01 [24]): 612 nM; Kd (HLA-B*15:01): 171 nM; Kd (HLA-B*27:05 [25]): 348 nM; Kd (HLA-B*40:01 [26]): 2280 nM; Kd (HLA-B*44:02 [27]): ≥ 20 µM; Kd (HLA-B*58:01 [28]): ≥ 20 µM; Kd (HLA-C*14:02): 118 nM; Kd (HLA-A*02:50; source organism: Salmonella enterica subsp. enterica serovar Typhi): ≤ 0.1 nM
